B1: BBSome complex member BBS5 (Homo sapiens), Q8N3I7 (parent)
chain: MSVLDALWEDRDVRFDLSAQQMKTRPGEVLIDCLDSIEDTKGNNGDRGRLLVTNLRILWHSLALSRVNVSVGYNCILNITTRTANSKLRGQTEALYILTKCNSTRFEFIFTNLVPGSPRLFTSVMAVHRAYETSKMYRDFKLRSALIQNKQLRLLPQEHVYDKINGVWNLSSDQGNLGTFFITNVRIVWHANMNDSFNVSIPYLQIRSIKIRDSKFGLALVIESSQQSGGYVLGFKIDPVEKLQESVKEINSLHKVYSASPIFGVDYEMEEKPQPLEALTVEQIQDDVEIDSDGHTDAFVAYFADGNKQQDREPVFSEELGLAIEKLKDGFTLQGLWEVMS
partner: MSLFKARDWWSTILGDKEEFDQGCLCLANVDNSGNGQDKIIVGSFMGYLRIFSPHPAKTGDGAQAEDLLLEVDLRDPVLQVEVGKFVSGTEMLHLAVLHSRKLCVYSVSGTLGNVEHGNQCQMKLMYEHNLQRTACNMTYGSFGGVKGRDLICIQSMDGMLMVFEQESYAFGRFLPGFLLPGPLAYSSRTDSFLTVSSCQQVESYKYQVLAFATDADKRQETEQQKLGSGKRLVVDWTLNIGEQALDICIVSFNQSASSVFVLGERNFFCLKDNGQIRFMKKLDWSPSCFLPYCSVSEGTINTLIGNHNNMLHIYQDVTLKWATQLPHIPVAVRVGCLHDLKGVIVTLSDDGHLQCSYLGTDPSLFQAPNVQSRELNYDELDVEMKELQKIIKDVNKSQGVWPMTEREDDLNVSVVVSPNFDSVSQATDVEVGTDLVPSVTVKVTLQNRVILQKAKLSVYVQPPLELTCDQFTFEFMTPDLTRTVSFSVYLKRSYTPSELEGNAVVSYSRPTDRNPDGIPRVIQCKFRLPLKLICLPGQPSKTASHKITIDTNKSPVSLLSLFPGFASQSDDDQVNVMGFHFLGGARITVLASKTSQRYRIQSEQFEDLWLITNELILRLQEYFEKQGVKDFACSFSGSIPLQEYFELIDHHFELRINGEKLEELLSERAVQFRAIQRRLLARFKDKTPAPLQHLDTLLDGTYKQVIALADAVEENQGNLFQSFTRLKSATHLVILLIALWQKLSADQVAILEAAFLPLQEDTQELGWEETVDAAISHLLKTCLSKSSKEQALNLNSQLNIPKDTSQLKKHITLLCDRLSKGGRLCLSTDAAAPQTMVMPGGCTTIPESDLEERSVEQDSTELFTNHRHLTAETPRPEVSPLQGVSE

Variants of: B1
Details: with pthb1_human BBS9, Q3SYG4

Question: For MSVLDALWEDRDVRFDLSAQQMKTRPGEVLIDCLDSIEDTKGNNGDRGRLLVTNLRILWHSLALSRVNVSVGYNCILNITTRTANSKLRGQTEALYILTKCNSTRFEFIFTNLVPGSPRLFTSVMAVHRAAETSKMYRDFKLRSALIQNKQLRLLPQEHVYDKINGVWNLSSDQGNLGTFFITNVRIVWHANMNDSFNVSIPYLQIRSIKIRDSKFGLALVIESSQQSGGYVLGFKIDPVEKLQESVKEINSLHKVYSASPIFGVDYEMEEKPQPLEALTVEQIQDDVEIDSDGHTDAFVAYFADGNKQQDREPVFSEELGLAIEKLKDGFTLQGLWEVMS [Y131A], which “effect of a mutation on the interaction” value is on record?
Answer: Its value is “with no effect”.

Question: How did the “effect of a mutation on the interaction” value turn out when MSVLDALWEDRDVRFDLSAQQMKTRPGEVLIDCLDSIEDTKGNNGDRGRLLVTNLRILWHSLALSRVNVSVGYNCILNITTATANSKLRGQTEALYILTKCNSTRFEFIFTNLVPGSPRLFTSVMAVHRAYETSKMYRDFKLRSALIQNKQLRLLPQEHVYDKINGVWNLSSDQGNLGTFFITNVRIVWHANMNDSFNVSIPYLQIRSIKIRDSKFGLALVIESSQQSGGYVLGFKIDPVEKLQESVKEINSLHKVYSASPIFGVDYEMEEKPQPLEALTVEQIQDDVEIDSDGHTDAFVAYFADGNKQQDREPVFSEELGLAIEKLKDGFTLQGLWEVMS [R82A] was run?
Answer: The value was “with no effect”.

Question: Which “effect of a mutation on the interaction” value does the source give for MSVLDALWEDRDVRFDLSAQQMKTRPGEVLIDCLDSIEDTKGNNGDRGRLLVTNLRILWHSLALSRVNVSVGYNCILNITTRTANSKLRGQTEALYILTKCNSTRFEFIFTNLVPGSPRLFTSVMAVHRAYETSKMYRDFKLRSALIQNKQLRLLPQEHVYDKINGVWNLESDQGNLGTFFITNVRIVWHANMNDSFNVSIPYLQIRSIKIRDSKFGLALVIESSQQSGGYVLGFKIDPVEKLQESVKEINSLHKVYSASPIFGVDYEMEEKPQPLEALTVEQIQDDVEIDSDGHTDAFVAYFADGNKQQDREPVFSEELGLAIEKLKDGFTLQGLWEVMS [S171E] here?
Answer: Its value is “with no effect”.

Question: MSVLDALWEDRAVRFDLSAQQMKTRPGEVLIDCLDSIEDTKGNNGDRGRLLVTNLRILWHSLALSRVNVSVGYNCILNITTRTANSKLRGQTEALYILTKCNSTRFEFIFTNLVPGSPRLFTSVMAVHRAYETSKMYRDFKLRSALIQNKQLRLLPQEHVYDKINGVWNLSSDQGNLGTFFITNVRIVWHANMNDSFNVSIPYLQIRSIKIRDSKFGLALVIESSQQSGGYVLGFKIDPVEKLQESVKEINSLHKVYSASPIFGVDYEMEEKPQPLEALTVEQIQDDVEIDSDGHTDAFVAYFADGNKQQDREPVFSEELGLAIEKLKDGFTLQGLWEVMS [D12A] was tested. Which “effect of a mutation on the interaction” value did it give?
Answer: The value was “with no effect”.

Question: For MSVLDALWEDRDVRFDLSAQQMKTRPGEVLIDCLDSIEDTKGNNGDRGRLLVTNLRILWHSLALSRVNVSVGYNCILNKTTRTANSKLRGQTEALYILTKCNSTRFEFIFTNLVPGSPRLFTSVMAVHRAYETSKMYRDFKLRSALIQNKQLRLLPQEHVYDKINGVWNLSSDQGNLGTFFITNVRIVWHANMNDSFNVSIPYLQIRSIKIRDSKFGLALVIESSQQSGGYVLGFKIDPVEKLQESVKEINSLHKVYSASPIFGVDYEMEEKPQPLEALTVEQIQDDVEIDSDGHTDAFVAYFADGNKQQDREPVFSEELGLAIEKLKDGFTLQGLWEVMS [I79K], which “effect of a mutation on the interaction” value is on record?
Answer: The value was “with no effect”.

Question: MSVLDALWEDRDVRFDLSAQQMKTRPGEVLIDCLDSIEDTKGNNGDRGRLLVTNLRILWHSLALSRVNVSVGYNCILNITTRTANSKLRGQAEALYILTKCNSTRFEFIFTNLVPGSPRLFTSVMAVHRAYETSKMYRDFKLRSALIQNKQLRLLPQEHVYDKINGVWNLSSDQGNLGTFFITNVRIVWHANMNDSFNVSIPYLQIRSIKIRDSKFGLALVIESSQQSGGYVLGFKIDPVEKLQESVKEINSLHKVYSASPIFGVDYEMEEKPQPLEALTVEQIQDDVEIDSDGHTDAFVAYFADGNKQQDREPVFSEELGLAIEKLKDGFTLQGLWEVMS [T92A] was tested. Which “effect of a mutation on the interaction” value did it give?
Answer: The value was “with no effect”.

Question: How did the “effect of a mutation on the interaction” value turn out when MSVLDALWEDRDVRFDLSAQQMKTRPGEVLIDCLDSIEDTKGNNGDRGRLLVTNLRILWHSLALSRVNVSVGYNCILNITTRTANSKLRGQTEALYILTKCNSTRFEFIFTALVPGSPRLFTSVMAVHRAYETSKMYRDFKLRSALIQNKQLRLLPQEHVYDKINGVWNLSSDQGNLGTFFITNVRIVWHANMNDSFNVSIPYLQIRSIKIRDSKFGLALVIESSQQSGGYVLGFKIDPVEKLQESVKEINSLHKVYSASPIFGVDYEMEEKPQPLEALTVEQIQDDVEIDSDGHTDAFVAYFADGNKQQDREPVFSEELGLAIEKLKDGFTLQGLWEVMS [N112A] was run?
Answer: The value was “with no effect”.

Question: For MSVLDALWEDRDVRFDLSAQQMKTRPGEVLIDCLDSIEDTKGNNGDRGRLLVTNLRILWHSLALSRVNVSVGYNCILNITTRTANSKLRGQTEALYILTKCNSTRFEFIFTNLVPGSPRLFTSVMAVHRAYETSKMYRDFKLRSALIQNKQLRLLPQEHVYDKINGVWNLSSDQGNLGTFFITNVRIVWHANMNDSFNVSIPYLQIRSIKIRDSKFGLALVIESSQQSGGYVLGFKIDPVEKLQESVKEINSLHKVYSASPIFKVDYEMEEKPQPLEALTVEQIQDDVEIDSDGHTDAFVAYFADGNKQQDREPVFSEELGLAIEKLKDGFTLQGLWEVMS [G264K], which “effect of a mutation on the interaction” value is on record?
Answer: The value was “with no effect”.

Source: IntAct's records for PubMed 29039417
